{"source": "patent US20250215420", "about": "“MULTIPLEXABLE CRISPR EDITORS UTILIZING INTRACELLULAR EVOLVED APTAMERS FOR ENDOGENOUS EFFECTOR RECRUITMENT” (The Trustees of Boston College, published 2025)", "molecules": {"B1": {"name": "gRNA J1.3-MS2 aptamer scaffold (ssRNA)", "RNA": "UUAUCACCUUGGCUGCAGGCGUUUUAGAGCUAGAAAUAGCAAGUUAAAAUAAGGCUAGUCCGUUAUCAACUUGAAAAAGUGCGCACAUGAGGAUCACCCAUGUGCUUUUUU"}}, "key": {"[1]": {"system": "MS2 coat protein (MCP)-SoxS R93A fusion (bacteriophage MS2)", "experiment": "ELONA", "settings": "protein coated at 10 ug/mL; aptamer 0.25-2500 nM"}, "[2]": {"system": "MCP T45L-SoxS R93A T45L (bacteriophage MS2)", "experiment": "cell_activity", "settings": "E. coli CRISPRa; some function retained"}, "[3]": {"molecular_target": "T1, MS2 coat protein (MCP)-SoxS R93A fusion, wild-type MCP (bacteriophage MS2)", "T1 chain": "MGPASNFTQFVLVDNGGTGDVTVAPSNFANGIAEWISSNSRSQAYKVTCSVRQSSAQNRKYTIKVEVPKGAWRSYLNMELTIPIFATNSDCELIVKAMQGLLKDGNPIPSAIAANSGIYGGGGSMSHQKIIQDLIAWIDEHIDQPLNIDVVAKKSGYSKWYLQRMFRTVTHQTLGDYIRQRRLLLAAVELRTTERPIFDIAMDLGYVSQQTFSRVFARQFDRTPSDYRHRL", "experiment": "cell_activity; CRISPRa in E. coli with dCas9, J1 promoter-GFP reporter", "settings": "tags: fused to SoxS(R93A); MS2 hairpin in sgRNA scaffold", "text": "To test the ability of the CRISPR system to accommodate the insertion of an RNA aptamer motif into the sgRNA and allow for locus-specific effector recruitment in E. coli cells, a construct was first designed to insert a known RNA aptamer against bacteriophage MS2 coat protein (MCP) into the tetraloop region of sgRNA (FIG. 3A, SEQ ID NO. 8). Correspondingly, MCP was fused with the SoxS transcriptional activator. Three plasmids (SP, AP, and RP) were designed to introduce into the cell the sgRNA-aptamer chimera, the MCP-SoxS fusion along with dCas9 (SEQ ID NO. 10), and a synthetic reporter construct, respectively (FIG. 4). Following a design principle established by a previous study, the synthetic reporter was constructed to control the expression of enhanced green fluorescent protein (eGFP) by CRISPR co-localized with RNA polymerase through aptamer-MCP interaction (FIG. 3B). This synthetic reporter construct contained a weak promoter and multiple protospacer sequences to be targeted by sgRNA to control levels of gene activation (FIG. 5A).\nThe distance of the sgRNA target from the transcription start site was also tested by using this reporter. […] Low GFP levels were also observed when an off-target gRNA was used that had no binding site on the J1 synthetic promoter. […]"}}}
{"molecule": "MS2 aptamer", "values": [{"measurement": "Kd", "setting": "[1]", "value": 26.3, "unit": "nM"}]}
{"molecule": "UUAUCACCUUGGCUGCAGGCGUUUUAGAGCUAGAAAUAGCAAGUUAAAAUAAGGCUAGUCCGUUAUCAACUUGAAAAAGUGCGCACAUGAGGAUCACCCAUGUGCUUUUUU [gRNA J1.3-MS2 aptamer scaffold]", "values": [{"measurement": "binding signal (fold GFP decrease vs wild-type MCP)", "setting": "[2]", "value": 23}]}
{"molecule": "B1", "values": [{"measurement": "activity", "setting": "[3]", "value": 56, "unit": "fold GFP increase"}]}
